US20230039941A1, “ENZYME ENHANCED ROOT UPTAKE OF AGROCHEMICAL ACTIVE COMPOUND” (BASF SE, priority 2019, published 2023)
Marks after values point to notes of the source that are not given here.

B1: CUT-4: Cutinase according to SEQ No. 4, Pseudomonas mendocina (94%), NCBI WP_096825365.1 (protein)
chain: APLPDTPGAPFPSVSNFDRSGPYATTSRSEGPNCRVYRPATLGQNGVRHPIVLWGNGTGTGPTAYSGLLSHWASHGFVVAAAETSNAGTGEQMLACLDYLVQESNRTYGTYVGVLNTGRVGTSGHSQGGGGSIMAGQDERVSVTAPIQPYTIGLGHDSASQRNQQGPMFLMSGGGDTIAFPYLNAQPVYTRANVPVFWGERRYVSHFEPVGDGGAYRGPSTAWFRYHLMEDETARSTFYGRFCGLCTSVLWTEERKDIE
modifications: Pseudomonas sp. SST3; Cutinase 9
B2: CUT-1: Cutinase according to SEQ No. 1, biological source Pseudomonas mendocina (US5545547A) (protein, listed as Pseudomonas mendocina)
chain: APLPDTPGAPFPAVANFDRSGPYTTSSQSEGPSCRIYRPRDLGQGGVRHPVILWGNGTGAGPSTYAGLLSHWASHGFVVAAAETSNAGTGREMLACLDYLVRENDTPYGTYSGKLNTGRVGTSGHSQGGGGSIMAGQDTRVRTTAPIQPYTLGLGHDSASQRRQQGPMFLMSGGGDTIAFPYLNAQPVYRRANVPVFWGERRYVSHFEPVGSGGAYRGPSTAWFRFQLMDDQDARATFYGAQCSLCTSLLWSVERRGL
modifications: Cutinase 1
B3: CUT-2: Cutinase according to SEQ No. 2, biological source Pseudomonas mendocina (PDB 2FX5_A) (protein, listed as Pseudomonas mendocina)
chain: APLPDTPGAPFPAVANFDRSGPYTVSSQSEGPSCRIYRPRDLGQGGVRHPVILWGNGTGAGPSTYAGLLSHWASHGFVVAAAETSNAGTGREMLACLDYLVRENDTPYGTYSGKLNTGRVGTSGHSQGGGGSIMAGQDTRVRTTAPIQPYTLGLGHDSASQRRQQGPMFLMSGGGDTIAFPYLNAQPVYRRANVPVFWGERRYVSHFEPVGSGGAYRGPSTAWFRFQLMDDQDARATFYGAQCSLCTSLLWSVERRGL
modifications: Cutinase 2

Columns and labels:
wheat seedlings = test: Clothianidin uptake in wheat seedlings (cotyledon analysis) after seed treatment with cutinases; type: in vivo, Triticum sp.; settings: for Average of clothianidin detected on 15 pairs of wheat cotyledons: wheat seed treatment with clothianidin plus enzyme-containing cell extract; for % Clothianidin uptake in wheat cotyledons: wheat seed treatment, one way ANOVA test (P = 0.002); for percent clothianidin uptake in wheat seedlings, effect of cutinase seed treatment: P=0.002
Protocol: a. Seed treatment: Formulations were diluted and enzymes were dissolved in HPLC water. Solutions were made and mixed immediately before each treatment. For each treatment, 100 g of spring wheat seeds (Triticum sp.) were placed in a 1-L bowl of a HEGE 11 seed treater. Treatment slurry was applied to spinning seeds in an application volume of 1.5 mL including 2.05 mg of lyophilized enzyme-containing cell extracts and seeds were spun until dry. Directly after treatment, seeds were transferred to paper seed pouches and stored in a cooler filed with ice packs until planting.
b. Plant incubation: Before seed treatment, 24-well plates were filled with RediEarth potting mixture sifted through a 3.35-mm mesh sieve. Tap water was uniformly applied to the soil surface using a conical spray nozzle until just before complete saturation of soil column (˜55 mL/plate). The soil was tamped down to a level of 1 cm below plate surface. One hour after treatment, one seed was placed on the soil surface of each well. RediEarth was sifted directly over the wells and the soil line was levelled to the plate surface. The soil surface was moistened again with ˜22 mL water/plate. Plates were then held in a randomized complete block design in an incubator at 25° C., 50% RH containing two FloraSun (F25T8 Plant Growth) lights at 14L:10D. Replication was 10 plates per treatment.
d. Cotyledon analysis: Fifteen excised pairs of wheat cotyledons were extracted (10× replicates) with acetonitrile solvent (10 mL, containing 1% acetic acid) by homogenization. The homogenate is first centrifuged to bring down the solvent/material sticking to the cap using Beckman Coulter (Allegra X-14R) centrifuge for 3 min at 3000 RPM. The collected homogenate is then treated with anhydrous magnesium sulfate (˜3500 mg), sodium acetate (˜220 mg) and vortexed well (˜30s) before further centrifugation for the same duration as above. The supernatant clear solution is then transferred into appropriate vials for LC/MS analysis without further dilution.
Control samples were prepared by spiking a known amount std clothianidin into 15 pairs of cotyledons (10 replicates) collected from the seedlings of untreated […] seeds and homogenized and processed as above. The recovery of the AI was quantified from the LC/MS data and then used to normalize the results from treated cotyledon sample sets.
(§1) LCMS analyses were performed using Thermo Fisher Scientific Q-Exactive Mass Analyzer with electrospray positive mode of ionization. Thermo Fisher Scientific Surveyor MS Plus Pump and autosampler were used for the chromatographic runs through a column (Sonoma-C18, 2.1×100 mm, 5 u). The gradient started with 98:2 Water/MeOH (containing 4 mM ammonium formate and 0.1% formic acid) and ending with 98:2 MeOH/Water in about 10 min.

canola seedlings = test: Uptake of the active ingredient in canola seedling cotyledons after seed treatment with or without cutinase; type: in vivo; settings: for Al Uptake (%) / Mean Al Uptake (ng/mg leaf): Cotyledon analysis seven days after planting; for Al Uptake (%): calculated based on spiked control, 22340 ng/replicate; for Mean Al Uptake (ng/mg leaf): normalized using mean % Al recovery (90.9%) and mean % coating efficiency
Protocol: (§2) Canola seeds were treated with formulated product diluted in water by spinning 100 g seed in a 1-liter HEGE bowl while applying treatment slurry. Seeds were spun until dry.
(§3) On the day of planting, 24-well plates (10 mL, nonsterile) were filled with a highly organic plug & seedling mix. Water was uniformly applied to the soil surface using a spray nozzle until just before complete saturation of soil column. Soil was tamped down to a level of 1 cm below plate surface. One treated seed was placed on the soil surface of each well and then covered with potting mixture leveled to the plate surface. The top soil surface was sprayed once more to moisten. Plates were then held in an incubator and top-watered as needed with fertilizer water (NPK 16-4-20-3(Ca)-1(Mg)) via spray nozzle. Seven days after planting, both cotyledons from ten plants were sampled for analysis by clipping the point where cotyledon meets stem. Replication was 10×.
(§4) The seed/excised cotyledons were extracted with acetonitrile solvent (3 mL, containing 1% acetic acid) by homogenization in Teflon tubes using 2010 Geno/Grinder (Spex Sample Prep) for 2 min at 1200 RPM. The homogenate was then mixed with anhydrous sodium sulphate (˜600 mg), sodium acetate (˜100 mg) and vortexed well before centrifugation using Beckman Coulter (Allegra X-14R) centrifuge for 5 min at 3000 RPM. The clear supernatant was then transferred into appropriate vials for LC/MS analysis.
as §1, with “Extractive Orbitrap” for “Q-Exactive”, “μm).” for “u).”

[1] = as above; type: in vivo; settings: canola, cotyledons (leaf), other: seed treatment (slurry applied to seeds), 20.1 μg/seed; Cotyledon analysis seven days after planting; normalized using mean % Al recovery (90.9%) and mean % coating efficiency; read-out: Mean Al Uptake (ng/mg leaf)
Protocol: as §2, §3, §4
as §1, with “Extractive Orbitrap” for “Q-Exactive”, “μm).” for “u).”

Molecule	Average of clothianidin detected on 15 pairs of wheat cotyledons (wheat seedlings) [ng]	% Clothianidin uptake in wheat cotyledons (wheat seedlings)	Al Uptake (%) (canola seedlings)	concentration at 7 days after planting [1] [ng/g]	percent clothianidin uptake in wheat seedlings, effect of cutinase seed treatment (wheat seedlings)	Mean Al Uptake (ng/mg leaf) (canola seedlings)	mean AI uptake (ng/mg leaf) compared with no enzyme control (canola seedlings; canola cotyledon analysis)	percent of AI uptake compared with no enzyme control (canola seedlings; canola cotyledon analysis)
CN/C(=N\[N+](=O)[O-])NCc1cnc(Cl)s1 [clothianidin, reference compound]	9.4 ± 2.0	0.39 ± 0.08^a %						
C[n+]1c([O-])c(-c2ccccc2)c(=O)n2c1SC[C@@H]2c1cnc(Cl)s1 [(3R)-3-(2-chlorothiazol-5-yl)-8-methyl-5-oxo-6-phenyl-2,3-dihydrothiazolo[3,2-a]pyrimidin-8-ium-7-olate]			0.40	2290				
B1	10.8 ± 2.1	0.44 ± 0.09^a %	0.43		improvement was not significant	2.16		
B2	12.5 ± 3.2	0.59 ± 0.15^b %	0.60		significantly enhanced	3.04	significantly higher than no enzyme control	significantly higher than no enzyme control
B3	11.9 ± 3.4	0.53 ± 0.15^ab %	0.39		improvement was not significant	1.87		
